{"source": "the DeepSol protein solubility set"}
{"assay": "soluble on expression in E. coli; label from the status in PepcDB or PDB records"}
{"sequence": "MLPLNATITQIIEESPLIRTFFFDHKFEDMEPGQFVMVWVRGVDEVPMGLSRNNSITVQKVGEATSKLFELKEGDSFGLRGPFGKGFTLPAKGEKVLIIAGGVGAAPLSPYAEAAFAAGAEVNTVLGARSEEHLLFEGRFEALGTVYVSTDDGSKGFKGFVTDVLKNLDVTSYDRIAVCGPEIMMASVFRFLEEREVLEKSEFSLHRYFKCGIGVCGACCIDRSGLRVCKDGPVFSGTQLIGSELGKYSRDASGRRVKI", "soluble on expression in E. coli": "not soluble"}
{"sequence": "MASAAKGKILAVIGDEDTVVGFLLGGVGELNKARKPNYLIVDKQTTVQEIEEAFNGFCARDDIAIILINQHIAEMIRYAVDNHTQSIPAVLEIPSKEAPYDPSKDSILNRARGLFNPEDFR", "soluble on expression in E. coli": "soluble"}
{"sequence": "GSGGARGLYLQTVTYNFLKEQGDNRIVRTQALPATRGTVSDRNGAVLALSAPTESLFAVPKDMKEMPSAAQLERLSELVDVPVDVLRNKLEQKGKSFIWIKRQLDPKVAEEVKALGLENFVFEKELKRHYPMGNLFAHVIGFTDIDGKGQEGLELSLEDSLYGEDGAEVVLRDRQGNIVDSLDSPRNKAPQNGKDIILSLDQRIQTLAYEELNKAVEYHQAKAGTVVVLDARTGEILALANTPAYDPNRPGRADSEQRRNRAVTDMIEPGSAIKPFVIAKALDAGKTDLNERLNTQPYKIGPSPVRDTHVYPSLDVRGIMQKSSNVGTSKLSARFGAEEMYDFYHELGIGVRMHSGFPGETAGLLRNWRRWRPIEQATMSFGYGLQLSLLQLARAYTALTHDGVLLPLSFEKQAVAPQGKRIFKESTAREVRNLMVSVTEPGGTGTAGAVDGFDVGAKTGTARKFVNGRYADNKHVATFIGFAPAKNPRVIVAVTIDEPTAHGYYGGVVAGPPFKKIMGGSLNILGISPTKPLTAAAVKTPS", "soluble on expression in E. coli": "soluble"}
{"sequence": "MGSDKIHHHHHHMINKHVISEKIKKAIVEANIKINPEVEEIIERYEGPFSDIIKENYRVSKEEKLPLCQDTGIVEFFVFIGHEVKLEEPIEETLNRAVGEVYSEYPFRYSVVSDPLFERINTGTNTPAIVHIFQVKGKSLEIRFLVKGGGSENLTVLRMMTPTSDVEKVKEFVIEHIKEHGAKACPPLHVGIGIGGTADKALLLSKLALTKSFKERNKDPKYAGLEKELEKELNFLGIGFQGLGKGITVYSVHIEHFPTHIATLPVAVSVDCYLCRRGKVTFED", "soluble on expression in E. coli": "not soluble"}
{"sequence": "MSDVKGKSTSGRGLTPKQEKFCQLYIELGNASEAYRQSYDCSKMTTEVINVKASELLNKNGKITVRVEELRQAHQQRHNLTLDNIIADLQEYRDICMGRKPLTITTVVKNAQEGTAQSVNTECFVFEPTGANKALELLGKHLGMFTNKVDVTTDGKPLPTVINVTFSDEPA", "soluble on expression in E. coli": "not soluble"}
{"sequence": "MGSDKIHHHHHHMRRLLTGCLLSSARPLKSRLPLLMSSSLPSSAGKKPKQATLARFFTSMKNKPTEGTPSPKKSSKHMLEDRMDNVSGEEEYATKKLKQTAVTHTVAAPSSMGSNFSSIPSSAPSSGVADSPQQSQRLVGEVEDALSSNNNDHYSSNIPYSEVCEVFNKIEAISSRLEIIRICSDFFIKIMKQSSKNLIPTTYLFINRLGPDYEAGLELGLGENLLMKTISETCGKSMSQIKLKYKDIGDLGEIAMGARNVQPTMFKPKPLTVGEVFKNLRAIAKTQGKDSQLKKMKLIKRMLTACKGIEAKFLIRSLESKLRIGLAEKTVLISLSKALLLHDENREDSPDKDVPMDVLESAQQKIRDAFCQVPNYEIVINSCLEHGIMNLDKYCTLRPGIPLKPMLAKPTKAINEVLDRFQGETFTSEYKYDGERAQVHLLNDGTMRIYSRNGENMTERYPEINITDFIQDLDTTKNLILDCEAVAWDKDQGKILPFQVLSTRKRKDVELNDVKVKVCLFAFDILCYNDERLINKSLKERREYLTKVTKVVPGEFQYATQITTNNLDELQKFLDESVNHSCEGLMVKMLEGPESHYEPSKRSRNWLKLKKDYLEGVGDSLDLCVLGAYYGRGKRTGTYGGFLLGCYNQDTGEFETCCKIGTGFSDEMLQLLHDRLTPTIIDGPKATFVFDSSAEPDVWFEPTTLFEVLTADLSLSPIYKAGSATFDKGVSLRFPRFLRIREDKGVEDATSSDQIVELYENQSHMQN", "soluble on expression in E. coli": "not soluble"}
{"sequence": "MSGLVLGQRDEPAGHRLSQEEILGSTKVVSQGLEALHSEHQAVLQSLSHTIECLQQGGHEEGLVHEKARQLRRSMENIELGLSEAQVMLALASHLSTVESEKQKLRAQVRRLCQENQWLRDELAGTQQRLQRSEQAVAQLEEEKKHLEFLRQLRQYDEDGHGMEEKEGEATKDSLDDLFPNEEEEDSGNDLSRGQGAAAAQQGGYEIPARLRTLHNLVIQYAAQGRYEVAVPLCKQALEDLERTSGRGHPDVATMLNILALVYRDQNKYKEAAHLLNDALSIRESTLGRDHPAVAATLNNLALLSVWGWPTGLPCPGLFYPLLPHYRSTYFTVSLINEPGNI", "soluble on expression in E. coli": "soluble"}
{"sequence": "MSEQYKQPNTPEPYWRQSTPLPDFKPLQNDLLVDVVIVGGGITGITTAYLLQKRGKKVVILEADRLFNGTTGHTTAKITAQHGLIYDEFIQHFGEDKAKQYYDAQMEAKTFIKNTVQDLSIDCDFQEHDAYIYTNANRYLAKLEREMRAYEKLQINGSLIDSMPLQVPIKKAIVMKGQAQFHPIAYLMKLVQDFIDRGGLIFEHTVATDVDKGEHRTVLTRDGHKVTCDYVVESSHFPFFDRGFYFSRMYADRSYVLGLKVKEPYPGGMYLSAEDPPRSIRHASYQGEDLWLISGETHKTGQGMDTDYHYEALESFSREMFNVTDISYRWSAQDLVTLDRMPYIGPATSNDPHILVATGFRKWGMTNGTIAAHVITDLIIGQVNAYQKLFAPQRFVADPSLRKFFSYNVDVAKHLIDGKTEKGSRTPESLQKDEGDVVNVNGKRAGGYRDTDGALHLVDTTCTHMGCEVSWNHGDRTWDCPCHGSRFSYDGEVVEGPAKKPLKKIDHTLEHHHHHH", "soluble on expression in E. coli": "soluble"}
{"sequence": "MGSDKIHHHHHHAQLSDNGYANVDWQFNAPLKNHFADKASGWGMNFEGGYFVTPNLGLGLFMNYSSNHEYFPRATFPVGEGTVNTDQQHTIFQLPFGAAARYQMNRGGAWQPYFGVKLGANYAKVRSNYNMFETRDNTWGFYVSPEIGLNVYPWAYGPGLHIAVYYSYATNKANVLTYNVDKLNNFGFRVGLAF", "soluble on expression in E. coli": "not soluble"}
{"sequence": "MSLTANSHAVMTVGDQTVSPQEFRLAYQRQVSDLSRQFGTRLTTEQAKAFGIDRQVFSQLAAGAALDELASKMNLGLSENRLANLIAEDPAFKSVNGQFDRNLFSERLRNSGFREDDYIKERSKVAVRSQIVEAVSDGFAAPQVLVDALKQYRNEQRAVDYVILSNAVIPPVKAPGDDVLTPWFETNKSKYRAPEFRKFTYVKLEPSDIAEPASVTDAQIADYYNSHKDSFRTAGRRTVEQLTFPDKEMAAAAAEQIRLGNTTYDQVVKDQGKTASDVTLGEFTKDTIPDQSIADAAFAIQKDGGVSPVVDGSFGPILLRVTGIKPETEGHHHHHH", "soluble on expression in E. coli": "soluble"}
{"sequence": "MAHHHHHHMYVLEGFYESVYNARWHHVVEVPDGEGTGMEVREGKSPQSWTYRAAGEFLEKNDGEEQSGALRPRLMVLTSGKGWPYSWEEDESTPDCYVNCEVDRVWQIVRNDLTELLGPDPGADFRPERRVLIGTPGIGKSLAAGSYLLYQLLQYDAEQLPMVAYVFAGRK", "soluble on expression in E. coli": "not soluble"}
{"sequence": "MPQQTVEVKEVDVLIRGIWRKKKFTDIQKGQTFKIEENGRTKKYIARTDPYWDDMFETYIIDLLDKNKIRRNKLEHHHHHH", "soluble on expression in E. coli": "not soluble"}
{"sequence": "MGSDKIHHHHHHMGGLGARHLYGSALGEHLVFKGGTSLSKAYQVIQRFSEDVDLTYDIRAIAPDLVGDDGEALPETRSEEKRWSSEVRKRLPNWVEGSVQPIIADALAAEALAAAIRVEGEKLFIDYAAATAGSGYVAPSVILEFGARSTGEPASLRDIACDASGLIEGVTFPTARPRVMHAERTFWEKATAIHVFCLQERLRGDRFARHWHDVARLDETGFTPSAFADRDLANAVARHKTMFFAEKAPDRTPIDYAAAVNGGLRLVPAGDGLKALEEDYARMVDDGLLLEDAEPFEALMARCADIAERANYIRE", "soluble on expression in E. coli": "not soluble"}
{"sequence": "MGSDKIHHHHHHMTRYQHLATLLAERIEQGLYRHGEKLPSVRSLSQEHGVSISTVQQAYQTLETMKLITPQPRSGYFVAQRKAQPPVPPMTRPVQRPVEITQWDQVLDMLEAHSDSSIVPLSKSTPDVEAPSLKPLWRELSRVVQHNLQTVLGYDLLAGQRVLREQIARLMLDSGSVVTADDIIITSGCHNSMSLALMAVCKPGDIVAVESPCYYGSMQMLRGMGVKVIEIPTDPETGISVEALELALEQWPIKGIILVPNCNNPLGFIMPDARKRAVLSLAQRHDIVIFEDDVYGELATEYPRPRTIHSWDIDGRVLLCSSFSKSIAPGLRVGWVAPGRYHDKLMHMKYAISSFNVPSTQMAAATFVLEGHYHRHIRRMRQIYQRNLALYTCWIREYFPCEICITRPKGGFLLWIELPEQVDMVCVARQLCRMKIQVAAGSIFSASGKYRNCLRINCALPLSETYREALKQIGEAVYRAME", "soluble on expression in E. coli": "not soluble"}
{"sequence": "MFRLSALYRYPIKSSAAESLERVALDALGVVGDRRWMAVDTETGRFFTQRLLPQLGRIQARWAAPEVLRLNAPGMSELSLEVPAADANLRGVTVWRDTLQAPDAGDAAADWLTRFLGRPTRLVHIPEARARQVDTGYAEPGQKVHFADGFPLLLIGQASLDDLSQRVGRPLEMLRFRPNLVVEGSAAFAEDGWKRIRIGSVEFVVAKPCSRCILTTLDPATGERNEDREPLTTLKTYREKDGAVLFGQNLIALGQGSLEVGMPVEILD", "soluble on expression in E. coli": "soluble"}
{"sequence": "YRENDPRLQLAFKLFLDGCTDKEVEQQTGINRRTFRRYRMKYGITNSLRHKND", "soluble on expression in E. coli": "not soluble"}
{"sequence": "GPGSMSRQQQAQELQKQWETDPRWKGIKRAFTAEDVVRLRGSIQQEHTLAKRGAEKLWTLINNEPFVNALGALTGNQAMQQVKAGLKAIYLSGWQVAGDANVAGEMYPDQSLYPANSVPLVVKRINNTLTRADQIQWSEGKNPGDEGYVDFFAPIVADAEAGFGGVLNAFELMKAMIEAGASGVHFEDQLASVKKCGHMGGKVLVPTREAVAKLTAARLAADVMGTPTVLVARTDAEAADLITSDIDDNDKPYLTGERTVEGFFRTKPGLEQAISRGLAYAPYADLIWCETGKPDLEYAKKFAEAIHKQFPGKLLSYNCSPSFNWKKNLDDATIAKFQKELGAMGYKFQFITLAGFHALNYSMFNLAHGYARTQMSAFVELQQAEFAAADKGFTAVKHQREVGTGYFDAVTQTVEREASTTALHGSTEDEQFFDGQKVA", "soluble on expression in E. coli": "soluble"}
{"sequence": "MHQVVCATTNPAKIQAILQAFHEIFGEGSCHIASVAVESGVPEQPFGSEETRAGARNRVANARRLLPEADFWVAIEAGIDGDSTFSWVVIENASQRGEARSATLPLPAVILEKVREGEALGPVMSRYTGIDEIGRKEGAIGVFTAGKLTRASVYHQAVILALSPFHNAVY", "soluble on expression in E. coli": "soluble"}
{"sequence": "MSLKITEIETLRPEEFPNLLWVLVHTDEGITGLGETFYGACSAEAYIHEWAANRLIGEDPLQIDRHAKRLSGYLGFRSAGAEMRGNSALDIALWDIFGKATGQPIYQLLGGKCRDTIRTYNTCAGPHYVRTAKQQSVANWGLANSVSARYDDLNAFLHRADELALDLLDSGITAMKIWPFDPYAEASDGYYISKSDLKRALEPFEKIRRAVGDKMDVMVEFHSLWNLPPALQIAEALREYETFWHEDPIRMDSLSSLKRYAERSLAPVCASETLATRWGFRDLLETNAAGIVMLDISWCGGLSEARKIASMAEAWHLPVAPHDCTGPVVLTASTHLSLNAPNALVQESVRAFYDGWYRDLVTALPTVKDGHITVPDGPGLGLELMPDIRERLTIAVRNTSDCEGHHHHHH", "soluble on expression in E. coli": "soluble"}
